Experimental data taken from PMC7531118, “Investigating host-microbiome interactions by droplet based microfluidics” (Microbiome, 2020).

Columns and labels:
[1] = system: CC(=O)N[C@H]1[C@H](Oc2ccc([N+](=O)[O-])cc2)O[C@H](CO)[C@@H](O)[C@@H]1O; experiment: purified protein; details: citrate buffer pH 5.5, 0.25 to 1.5 mM substrate, 30.0 °C
[2] = system: CC(=O)N[C@H]1[C@H](Oc2ccc([N+](=O)[O-])cc2)O[C@H](CO)[C@H](O)[C@@H]1O; experiment: purified protein; details: citrate buffer pH 5.5, 0.25 to 1.5 mM substrate, 30.0 °C

Uhgb_GH123 (Phocaeicola plebeius DSM 17135)
Km [1]: 3.87 ± 0.27 mM
kcat [1]: 0.33 ± 0.02 s⁻¹
kcat/Km [1]: 85 M⁻¹ s⁻¹
Km [2]: 1.17 ± 0.10 mM
kcat [2]: 21.2 ± 1.18 s⁻¹
kcat/Km [2]: 18200 M⁻¹ s⁻¹
